{
  "source": "paper PMC6511850",
  "about": "(Nucleic Acids Research, 2019)",
  "molecular_target": "the molecule itself",
  "assay": "SEC",
  "data": [
    {"protein": "Bacillus subtilis m1A22 tRNA methyltransferase TrmK (wild type) (enzyme, UniProt P54471 1-238, looked up) MNELKLSKRLQTVAEYIPNGAVMADIGSDHAYLPCYAVLNHKASGAIAGEITDGPFLSAKRQVEKSGLNSHISVRQGDGLEVIKKGEADAITIAGMGGALIAHILEAGKDKLTGKERLILQPNIHAVHIREWLYKERYALIDEVILEEDGKCYEVLVAEAGDRDAAYDGISLSAGMLVGPFLAKEKNAVFLKKWTQELQHTQSIYEQISQAADTEQNKQKLKELADRMELLKEVIDHG", "values": [
      {"measurement": "binding result", "result": "binds"}
    ]}
  ]
}
